According to the supplement of paper PMC7125110:
± gives the standard error. For part of these data: Variants at the floor of the assay were thinned out.

B1: glmS ribozyme (parent)
chain: AUAAAAGCGCCAGAACUACAGAAAUGUAGUUGACGAGGAGGAGGUUUAUCGAAUUUUCGGCGGAUGCCUCCAAA

How the values were obtained:
Conditions in all cases: with glucosamine-6-phosphate
glucosamine-6-phosphate [1] = variants of: B1; experiment: kcat; higher = faster cleavage; RNA array
Method in brief: (§1)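 Glucosamine-6-phosphate, from 40 μM to 10 mM in HEPES/KCl/Mg(OAc)2 buffer, was flowed over sequenced MiSeq chips carrying barcoded ribozyme variants transcribed in situ by E. coli RNA polymerase. A hybridised Cy3 probe tracked the variants at 37 °C as tiles were imaged over ~14 h. kobs, kcat and KM were obtained by fitting normalised per-tile medians to exponential decays and then applying weighted Michaelis–Menten fits across concentrations.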

glucosamine-6-phosphate [2] = variants of: B1; experiment: KM; higher = weaker cofactor use; RNA array
Method in brief: as §1

glucosamine-6-phosphate [3] = variants of: B1; experiment: self-cleavage kobs at 40 uM GlcN6P; higher = faster cleavage; RNA array
Method in brief: as §1

glucosamine-6-phosphate [4] = variants of: B1; experiment: self-cleavage kobs at 160 uM GlcN6P; higher = faster cleavage; RNA array
Method in brief: as §1

glucosamine-6-phosphate [5] = variants of: B1; experiment: self-cleavage kobs at 640 uM GlcN6P; higher = faster cleavage; RNA array
Method in brief: as §1

glucosamine-6-phosphate [6] = variants of: B1; experiment: self-cleavage kobs at 2500 uM GlcN6P; higher = faster cleavage; RNA array
Method in brief: as §1

glucosamine-6-phosphate [7] = variants of: B1; experiment: self-cleavage kobs at 10000 uM GlcN6P; higher = faster cleavage; RNA array
Method in brief: as §1

Row | Variant | kcat (glucosamine-6-phosphate [1]) [s⁻¹] | KM (glucosamine-6-phosphate [2]) [µM] | self-cleavage kobs at 40 uM GlcN6P (glucosamine-6-phosphate [3]) [s⁻¹] | self-cleavage kobs at 160 uM GlcN6P (glucosamine-6-phosphate [4]) [s⁻¹] | self-cleavage kobs at 640 uM GlcN6P (glucosamine-6-phosphate [5]) [s⁻¹] | self-cleavage kobs at 2500 uM GlcN6P (glucosamine-6-phosphate [6]) [s⁻¹] | self-cleavage kobs at 10000 uM GlcN6P (glucosamine-6-phosphate [7]) [s⁻¹]
1 | U45G U46C | 0.0148 ± 0.0013 | 3530 ± 440 | 0.000173 ± 2.8e-05 | 0.00068 ± 0.00013 | 0.0019 ± 0.00046 | 0.00634 ± 0.001 | 0.011 ± 0.0013
2 | U45G U46G | 0.00603 ± 0.0024 | – | 7.27e-05 ± 1.4e-05 | 0.000206 ± 5.5e-05 | 0.000961 ± 0.00019 | 0.00158 ± 0.00036 | 0.00523 ± 0.00084
3 | U46C U49G | 0.000109 ± 8.3e-06 | 817 ± 220 | – | – | 4.66e-05 ± 1.2e-05 | 8.96e-05 ± 1.6e-05 | 9.78e-05 ± 1.5e-05
4 | U45C U49C G66U | < 1e-05 | – | – | – | – | < 1e-05 | < 1e-05
5 | U45G C71A | 0.000924 ± 0.00018 | 1750 ± 590 | 3.27e-05 ± 1.3e-05 | 8.6e-05 ± 1.7e-05 | 0.000204 ± 3.8e-05 | 0.000778 ± 0.00016 | 0.000766 ± 0.0001
6 | U46C A48C | 0.000204 ± 4.7e-05 | – | – | – | – | 8.54e-05 ± 2.8e-05 | 0.000136 ± 2.8e-05
7 | U46C C68U | 0.000934 ± 0.0002 | 1480 ± 580 | 2.43e-05 ± 7.6e-06 | 7.49e-05 ± 1.3e-05 | 0.000387 ± 6e-05 | 0.000933 ± 0.00014 | 0.000743 ± 7.7e-05
8 | U46C C68G | 5.04e-05 ± 2e-06 | 811 ± 200 | – | – | – | – | 4.62e-05 ± 1.3e-05
9 | U46A C68A | 1.9e-05 ± 7.6e-06 | – | < 1e-05 | – | – | – | –
10 | U46C C50U | 1.22e-05 ± 2e-06 | – | < 1e-05 | – | – | – | –
11 | G44U U57G | < 1e-05 | – | < 1e-05 | < 1e-05 | – | < 1e-05 | < 1e-05
12 | U46C C71A | 0.000545 ± 4.7e-05 | 811 ± 130 | – | 8.19e-05 ± 2.2e-05 | 0.000252 ± 4.5e-05 | 0.00045 ± 9.1e-05 | 0.000453 ± 0.00011
13 | U46C C71U | 0.00342 ± 0.00056 | 1240 ± 290 | 0.000102 ± 1.5e-05 | 0.000375 ± 5.8e-05 | 0.00126 ± 0.00019 | 0.00309 ± 0.00044 | 0.00266 ± 0.00038
14 | G44U C67U | 0.00551 ± 0.0015 | 727 ± 310 | 0.000365 ± 4e-05 | 0.000837 ± 0.00016 | 0.00206 ± 0.00029 | 0.00417 ± 0.00073 | 0.00691 ± 0.001
15 | G44U C67A | 0.0253 ± 0.0035 | 1130 ± 210 | 0.000868 ± 0.0001 | 0.00267 ± 0.00064 | 0.00977 ± 0.0013 | 0.0244 ± 0.0065 | 0.0209 ± 0.0036
16 | U46A U69C | 0.00197 ± 0.00058 | 1590 ± 770 | 9.53e-05 ± 1.9e-05 | 0.000133 ± 2.7e-05 | 0.00073 ± 0.00012 | 0.00122 ± 0.00015 | 0.00162 ± 0.00027
17 | U45C A53U | 0.0028 ± 0.0008 | 4320 ± 1700 | 4.26e-05 ± 1.2e-05 | 0.000117 ± 2.5e-05 | 0.00031 ± 5e-05 | 0.00109 ± 0.00022 | 0.00199 ± 0.00035
18 | U46A U65C | 0.000937 ± 0.00023 | 2440 ± 1100 | – | 4.37e-05 ± 1.8e-05 | 0.00029 ± 6.2e-05 | 0.000426 ± 8.2e-05 | 0.000782 ± 0.00014
19 | U45A U56C | 0.00585 ± 0.0022 | 3070 ± 1400 | 7.22e-05 ± 1e-05 | 0.000234 ± 3.5e-05 | 0.0014 ± 0.00014 | 0.00259 ± 0.00069 | 0.00411 ± 0.00072
20 | U46C U57G | 1.4e-05 ± 2.4e-06 | – | – | – | – | – | –
21 | U46C U56A | 0.00121 ± 0.00013 | 1470 ± 230 | 2.85e-05 ± 1e-05 | 0.000117 ± 1.4e-05 | 0.000406 ± 0.00011 | 0.000915 ± 0.00015 | 0.00098 ± 0.00014
22 | U45C A48U | 7.71e-05 ± 4.6e-06 | 628 ± 170 | – | – | – | 6.49e-05 ± 1.5e-05 | 6.96e-05 ± 1.9e-05
23 | U46A U54G | 0.00254 ± 0.00049 | 1180 ± 400 | 8.77e-05 ± 2e-05 | 0.000213 ± 5.2e-05 | 0.00113 ± 0.00014 | 0.00191 ± 0.00028 | 0.00205 ± 0.00028
24 | U45G U56A | 0.00335 ± 0.00043 | 1720 ± 280 | 7.59e-05 ± 1.8e-05 | 0.000299 ± 6.2e-05 | 0.000848 ± 0.00019 | 0.00206 ± 0.00051 | –
25 | U46G A48G | 7.99e-05 ± 1e-06 | 1250 ± 69 | < 1e-05 | – | – | 5.4e-05 ± 1.2e-05 | 7.08e-05 ± 1e-05
26 | U45G A48U | 0.000351 ± 8.1e-05 | 3040 ± 1200 | – | – | 5.51e-05 ± 1.4e-05 | 0.000209 ± 4.5e-05 | 0.000246 ± 5.7e-05
27 | U45A A64G | 0.0186 ± 0.0054 | 600 ± 260 | 0.000998 ± 0.00025 | 0.00526 ± 0.0021 | 0.0143 ± 0.0033 | – | 0.015 ± 0.004
28 | U46C U55C | 0.00703 ± 0.0025 | 3630 ± 1700 | 0.000129 ± 1.9e-05 | 0.000217 ± 4.2e-05 | 0.00108 ± 0.00013 | 0.00291 ± 0.00042 | 0.00515 ± 0.00071
29 | U46C U55G | 0.00362 ± 0.00063 | 1790 ± 450 | 8.17e-05 ± 2.1e-05 | 0.000255 ± 5.8e-05 | 0.00107 ± 0.00023 | 0.00259 ± 0.00049 | 0.00271 ± 0.00058
